This note sets out measurements from a protein production outcome set (Wang et al. 2014).

The data set can be described thus: label from the status in PepcDB records.
With “SLERSVNGKIQKADIFSVPVSFNASEVKHVDTPQEALAASLNKFGEVNLEYMENLSEIDIQELLKQLDTRIFYNPMMKNYEIKDRFIAGNVVAKAEWIENYLKDYPDDDASRKSLEALRKAIPEPISFELLDFNLGERWIPMSVYEEFAGYLFETKAHIHYTESIDEFSVNFESTNANITDRYYVKGEKRGYYGNDLLKHALHNTVPDITKTVQDEEGNDIKVRDAEAIQLADAKINEIRSAFTGWLNEQLPEFKQNLADMYNRKFNCYVRPDYDGSLQSFPFLDLKGLGIPNLYDSQ”, the protein production entry is reported as “failed”.
Consider “SLKLAKNVEIEIRTKIHPTESEDKVLKAIRNIFPDAEIEISEEGEVYGRAYSLDRFRELLRKQRILDTARSEILKGRNGKEVTIYLNKQTATVSRINFCDENAVLSPIKVTFRLNNIPFSRFLDYIAPETKDGRPVKEIDKL”, for which the protein production result is reported as “not failed”.
In the case of “SLKLFLFEFATCGERIEDSTAVEGLAMFKSAFDGFKNYYEITGFVRPEFSCLFTLPVDSMDSMEKYLEKSDAFLIIAPEDDFLLYTLTKKAEKYCENLGSSSRAIAVTSDKWELYKKLRGEVQVPQTSLRPLDCKFIIKPRTACAGEGIGFSDEVPDGHIAQEFIEGINLSVSLAVGEDVKCLSVNEQIINNFRYAGAVVPARISDEVKREVVEEAVRAVECVEGLNGYVGVDIVYSDQPYVIEINARLTTPVVAFSRAYGASVADLLAGGEVKHVRRQMVRKSKSAEKPYVSVGDYTLEIIDLD”, the protein production result was “not failed”.
Consider “SLNEGQEMEEQFALLLETLKNQQMNEFRELFLALHIYEQGQFYQSLDEKDRQHLYNYLSPKELADMFDVIEEDNENMKDYLAEMRPSYAADMLAEMYTDNAVDLLNMLDKSQKAKYLSLLSSEEAGEIKELLHYEDETAGAIMTTEFVSIVANQTVRSAMYVLKNQADMAETIYYVYVVDQENHLVGVISLRDLIVNDDDTLIADILNERVISVHVGDDQEDVAQTIRDYDFLAVPVTDYDDHLLGIVTVDDIIDVIDDEAASDYSGLAGVDVEEVSENPLKAASK”, for which the protein production entry is given as “not failed”.
Turning to “SLPHCETLLLEPIEGVLRITLNRPQSRNAMSLAMVGELRAVLAAVRDDRSVRALVLRGADGHFCAGGDIKDMAGARAAGAEAYRTLNRAFGSLLEEAQAAPQLLVALVEGAVLGGGFGLACVSDVAIAAADAQFGLPETSLGILPAQIAPFVVRRIGLTQARRLALTAARFDGREALRLGLVHFCEADADALEQRLEETLEQLRRCAPNANAATKALLLASESGELGALLDDAARQFAEAVGGAEGS”, the protein production result is “failed”.
On to “SLRKERARSAEEPWTQNQQKLLELALQQYPRGSSDCWDKIARCVPSKSKEDCIARYKLLV”, for which the protein production result is given as “not failed”.
In the case of “SLTSKNQFYKPGMLVPVFSAAGLLKNGRYQFLLQQIETLSLLPTEQYAQLYEALVYRFVEFVQVLPIRLDEPLCSLMNEGLLRGVNSLNHYIQNHPEATPLERYALFSAGLLLEVAHAVVNQKIFITDEEGNFIKQWNPFSGPLIDDVETKHYKIMPLSSYYQRNIPSITPILVRQLLPDEGFLWLTSDMRVFSDWMQALRDDEGEGGGRFEHVLQLFKHKNIDGLFNTLPALPVNLQDSPATAHADAFLNWLKEALATNQIKVNTSDAGVHVIPEGVFLEKTGIFKQYIDLHVNVPVNLFTVYQQFGNLFGLTKLSGIDYRFEQLFSEYPDALKRKSKMGFAGLIGIRRASPTREGVLIADPNLIFTRGEIPSATSYLKLSSAQKSQNIPMT”, the protein production entry is “not failed”.
“SNQDITQPTAIIAVVGVGAEQGIGAAVCRRFAQEKFKVYVAGRTLNKVEKVAAAIHRQGGQAVAYVLDAENEQQLQTLFDHLNDQPEALAAVIHNVGGNIPSIFLQSSLKFFSQMWRSTFLSSVLVAQRSLSIFQKQQQGTLIFTGASASLRGKPFFAAFSMGKSALRSYALNLAELYRSQNIHVAHVMVDGMVDGDRVNKALWGLGRLARLTRGTGGLNIDAIAENYWMLYQQNVDLWT”: the protein production entry was “failed”.
Turning to “SNRMTEMHVCLADAIQKDNRPEISNRLFRSNAVEKEILRVQKLLKNAKLAWMFTNCFPNTLDTTVHFRKGSDGKPDTFVYTGDIHAMWLRDSGAQVWPYVQLANSDPELKEMLAGVILRQFKCINIDPYANAFNDGAIPDGHWMSDLTDMKPELHERKWEIDSLCYPLRLAYHYWKTTGDASIFNEEWIQAITNVLKTFKEQQRKDGVGPYKFQRKTERALDTVSNDGLGAPVKPVGLIVSSFRPSDDATTLQFLVPSNFFAVSSLRKAAEILEKVNKKTALSKECKDLAQEVETALKKYAVYNHPKYGKIYAFEVDGFGNHHLMDDANVPSLLAMPYLGDVNVNDPIYQNTRRFVWSEDNPYFFKGKAGEGIGGPHIGYDMVWPMSIMMKAFTSQNDAEIKTCIKMLMDTDAGTGFMHESFHKDNPKKFTRAWFAWQNTLFGELILKLVNEGKVDLLNSIQ”, the protein production entry is given as “not failed”.
